What was measured:
[1] = molecular target: T1, pol κ (UniProt Q9UBT6 1-870); experiment: yeast two-hybrid
T1 construct: Tested in yeast two-hybrid (GAL4 domain fusion); also called primary protein product of the POLK
T1 sequence (looked up): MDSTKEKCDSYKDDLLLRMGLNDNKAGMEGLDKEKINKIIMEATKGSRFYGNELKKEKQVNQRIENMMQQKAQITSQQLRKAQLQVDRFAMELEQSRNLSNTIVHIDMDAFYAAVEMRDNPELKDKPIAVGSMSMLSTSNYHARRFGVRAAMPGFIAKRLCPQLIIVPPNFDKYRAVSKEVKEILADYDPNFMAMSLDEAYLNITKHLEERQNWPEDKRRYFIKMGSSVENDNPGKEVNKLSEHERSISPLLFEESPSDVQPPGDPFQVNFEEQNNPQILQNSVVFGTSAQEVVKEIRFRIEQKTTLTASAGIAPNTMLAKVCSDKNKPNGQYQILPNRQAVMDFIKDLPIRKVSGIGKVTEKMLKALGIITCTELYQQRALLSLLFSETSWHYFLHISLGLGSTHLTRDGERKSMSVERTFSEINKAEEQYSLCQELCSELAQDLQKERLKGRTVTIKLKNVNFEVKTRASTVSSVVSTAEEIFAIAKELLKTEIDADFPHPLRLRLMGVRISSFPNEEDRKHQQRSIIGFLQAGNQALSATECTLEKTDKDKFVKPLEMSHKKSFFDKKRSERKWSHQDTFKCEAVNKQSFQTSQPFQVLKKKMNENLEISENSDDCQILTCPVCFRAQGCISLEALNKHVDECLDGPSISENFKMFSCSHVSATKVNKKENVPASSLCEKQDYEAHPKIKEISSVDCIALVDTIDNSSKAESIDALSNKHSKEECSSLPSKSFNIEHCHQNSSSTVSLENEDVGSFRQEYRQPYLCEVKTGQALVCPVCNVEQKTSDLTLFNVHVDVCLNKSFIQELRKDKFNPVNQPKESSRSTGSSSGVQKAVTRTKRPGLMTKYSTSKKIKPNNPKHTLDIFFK

[2] = molecular target: T2, GIP130c (human, UniProt Q4L180 1-1128); experiment: yeast two-hybrid and three-hybrid (conclusion)
T2 construct: Full length; tested as GAL4 domain fusion in yeast two-hybrid
T2 sequence: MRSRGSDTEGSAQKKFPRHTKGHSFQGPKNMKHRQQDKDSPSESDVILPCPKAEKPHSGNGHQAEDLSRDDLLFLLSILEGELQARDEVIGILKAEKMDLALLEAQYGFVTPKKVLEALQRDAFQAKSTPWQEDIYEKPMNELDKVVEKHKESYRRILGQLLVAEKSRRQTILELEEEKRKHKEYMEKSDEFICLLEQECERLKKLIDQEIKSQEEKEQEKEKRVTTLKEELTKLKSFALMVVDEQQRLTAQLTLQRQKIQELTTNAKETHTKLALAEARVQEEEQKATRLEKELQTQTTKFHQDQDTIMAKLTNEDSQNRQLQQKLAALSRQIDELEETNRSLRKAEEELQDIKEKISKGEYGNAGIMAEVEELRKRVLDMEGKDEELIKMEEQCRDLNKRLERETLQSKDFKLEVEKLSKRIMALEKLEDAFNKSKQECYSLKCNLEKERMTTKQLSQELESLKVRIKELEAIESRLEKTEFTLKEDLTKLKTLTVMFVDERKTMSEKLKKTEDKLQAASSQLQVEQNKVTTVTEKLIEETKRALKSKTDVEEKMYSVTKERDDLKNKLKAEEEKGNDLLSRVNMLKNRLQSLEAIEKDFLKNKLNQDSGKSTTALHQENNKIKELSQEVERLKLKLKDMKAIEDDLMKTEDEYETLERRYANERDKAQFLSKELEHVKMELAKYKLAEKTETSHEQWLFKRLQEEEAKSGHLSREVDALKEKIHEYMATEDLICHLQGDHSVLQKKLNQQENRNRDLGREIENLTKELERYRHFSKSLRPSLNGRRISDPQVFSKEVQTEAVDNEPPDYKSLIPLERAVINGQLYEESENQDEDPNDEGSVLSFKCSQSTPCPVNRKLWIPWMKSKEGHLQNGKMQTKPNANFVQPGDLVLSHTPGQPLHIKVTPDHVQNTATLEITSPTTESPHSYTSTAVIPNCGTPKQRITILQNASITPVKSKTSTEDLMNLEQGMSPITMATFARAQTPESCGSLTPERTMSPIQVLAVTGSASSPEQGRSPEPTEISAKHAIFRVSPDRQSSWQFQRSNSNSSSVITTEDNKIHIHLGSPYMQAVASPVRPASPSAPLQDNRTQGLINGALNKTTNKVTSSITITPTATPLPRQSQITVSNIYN
Experimental: Accordingly, we have observed with a yeast three-hybrid system that GPBP expression efficiently impairs both I-20 and GIP90 aggregation, and that I-20 and GIP90 efficiently impair GPBP aggregation.
Deletion mutants were obtained using specific primers and PCR, followed by cloning of the resulting cDNAs in the pGBT9 and pGAD424 vectors. The assays were performed in SFY526 or HF7c Saccharomyces cerevisiae strains, with pGBT9 as GAL4 binding domain vector and pGAD424 as GAL4 activation domain vector, by the lift colony assay procedure. Briefly, the yeast cells were co-transformed with constructs of both binding domain and activation domain vectors, and the co-transformants were selected in medium deficient in both tryptophan and leucine. After five days of incubation at 30° C. the colonies were tested for the expression of β-galactosidase with X-Gal substrate (0.75 mg/ml). […] When the assays were performed with the HF7c strain, the interactions were assessed by the lift colony assay procedure and by growth in medium deficient in histidine, tryptophan and leucine. For yeast three-hybrid system, we used the pBRIDGE vector, which allows the conditional expression of a third protein apart from the usual GAL4 binding and activation domain-fusion proteins of the two-hybrid system. In this case, the expression of GPBP or I-20 or GIP90 was driven by Met25 promoter, active in absence of methionine. In these experiments, the transformed SFY526 cells were plated in medium deficient in tryptophan, leucine and methionine, and subjected to the colony lift assay after five days at 30° C. In the case of the strain HF7c the colonies grown in the cited plates were streaked on medium with the additional deficiency of histidine.

B1: Goodpasture antigen binding protein (GPBP) (enzyme, UniProt Q9Y5P4 1-624, looked up)
chain: MSDNQSWNSSGSEEDPETESGPPVERCGVLSKWTNYIHGWQDRWVVLKNNALSYYKSEDETEYGCRGSICLSKAVITPHDFDECRFDISVNDSVWYLRAQDPDHRQQWIDAIEQHKTESGYGSESSLRRHGSMVSLVSGASGYSATSTSSFKKGHSLREKLAEMETFRDILCRQVDTLQKYFDACADAVSKDELQRDKVVEDDEDDFPTTRSDGDFLHSTNGNKEKLFPHVTPKGINGIDFKGEAITFKATTAGILATLSHCIELMVKREDSWQKRLDKETEKKRRTEEAYKNAMTELKKKSHFGGPDYEEGPNSLINEEEFFDAVEAALDRQDKIEEQSQSEKVRLHWPTSLPSGDAFSSVGTHRFVQKPYSRSSSMSSIDLVSASDDVHRFSSQVEEMVQNHMTYSLQDVGGDANWQLVVEEGEMKVYRREVEENGIVLDPLKATHAVKGVTGHEVCNYFWNVDVRNDWETTIENFHVVETLADNAIIIYQTHKRVWPASQRDVLYLSVIRKIPALTENDPETWIVCNFSVDHDSAPLNNRCVRAKINVAMICQTLVSPPEGNQEISRDNILCKITYVANVNPGGWAPASVLRAVAKREYPKFLKRFTSYVQEKTAGKPILF
notes: Protein kinase; Fusion parts are not written as pieces
- binding result [1]: no binding
- binding result [2]: binds

From patent US20030108554A1 (published 2003)
